The supplement of paper PMC9170038

The sequences below were run on MS2 coat protein (assay: apparent KD of MS2 coat protein; higher = weaker reporter binding). Details: Eterna round: R107; input ligand: arginine 13.2 mM.
Experimental: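 RNA-MaP round R107: designed RNA switches with theophylline, tryptophan, arginine or FMN aptamers are transcribed on-chip within common flanks. They are titrated with SNAP-549-labelled MS2 coat protein in RNA-MaP buffer (100 mM Tris pH 7.5, 80 mM KCl, 4 mM MgCl2), without ligand or with the indicated ligand. Median apparent KD per design.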

Row | Sequence | apparent KD of MS2 coat protein
1 | UAGUUGCUGACGGCCGCCACUAGAACAUGAGGAUCACCCAUGUAUUCUAGUGGACAUGGGUGGACUAGGACCGGGUCAGCAACAU [(Trp1)-(Ms2)-(T)'-(M)'-(Trp2)_Design9] | 21 nM
2 | AAUAAUAAGGCGGCCGCCACUACACAUGAGGAUCACCCAUGUCUCGCGGGCUUGCGUUGGGAAAGUAGGACCGGGCCAAUAAUAA [Exclusion - Tryptophan B (Freestyle 9)] | 15.3 nM
3 | GGUACAUGAGGAUCACCCAUGUAUGGGUACCGAGGACCGGUACGGCCGCCACUCGCAGGACAUGAGGAUCACCCAUGUGCAACCG [SSTA DOUBLE!!! :-D #11] | 61 nM
4 | UUUUUCAUAGGUUAUAGUUUAGAAACUGAAGGAGCGUGGUAAUACACAGGUAGGUCGCAGAUUUUACAUGAGGAUCACCCAUGUU [JR_ExcArginiA_Sub014] | 22.1 nM
5 | ACAUGAGGAUCACCCAUGUGAAGGCACGAUACCAGCUGAUCCCGUGGCCCUUGGCAGCGUCCGGUGUGGUCCGGCGGGUGGGACG [bbvmullin] | 25.8 nM
6 | CGGCCCUCACCUGAGGAUCACCCAGGUGAUACCAGCCUGGAAACAGGCCCUUGGCAGCACCAGGUCAUCAAAGAUGACCAAGCCG [TheoAX 23 #SwitchBubble] | 9.35 nM
7 | GACCGAUUAUAGCGCGAUUGUCUUGUGGAAGGAGCGCAGAGGGCUGCAGGUAGGUCGCCACAUGAGGAUCACCCAUGUCAGGAUA [Ananvediri] | 30.5 nM
8 | AACAACAAGGGAAGGAGCGCGAAUAAUAAACAUGAGGAUCACCCAUGUAUCAUGGGCUUAACGCAGGUAGGUCGCCCACAAACAA [Exclusion Arginine B GF1] | 34 nM
9 | GAUUACAUGAGGAUCACCCAUGUAACUGAAGGAGCGGUGAUAAAGCCAGGUAGGUCGCAGAACGACAUGUGGUUCAUCCAUGUAA [#16 Exclusion - Arginine A] | 33.7 nM
10 | AGACAUGAGGAUCACCCAUGUAGCACGGAUACCAGAUCCAGAUUUAUCCCUUGGCAGCUGUGGUACAGCGUUGCAACGCUCCUAG [Exclusion - Theophylline A (Freestyle 16)] | 17.6 nM
11 | GAUAUAACAAAAGUUGUAUCAGUGGGUGAACGAGGACCGGUACGGCCGCCACUCGGACAUGAGGAUCACCCAUGUCCAUGUGAAA [AstrosExyTryA#18] | 11.6 nM
12 | UGUAUGUGAUUUGAUACCAGACCAGCUGGUGUUAUAUGAGGAUCACCCAUAUAGGUUUGGGUCCCUUGGCAGCAAAUCGCAUACU [SS Theo B #24 Ms14] | 40.7 nM
13 | CUCUGAGUCCGAAAGGACUCAGAGGCGGAUACCAGCGAGGUCCAUCGCCCUUGGCAGCCGAACAUGAGGAUCACCCAUGUCGGUA [#1 Same State - Theophylline A Attempt #28 (HarryS)] | 9.74 nM
14 | UUGUUGUUUGGAAGGAGCGUGUAAGAUUAAGAACAUGAGGAUCACCCAUGUUUUAAGGGAACACAGGUAGGUCGCCGGGUGGUGG [11.R] | 15.5 nM
15 | GCCUAGCAUCGAAGGAGCGGGCAUUACGCGCGAAAGCGCGAUACUUGAGGAACACCCAAGUCCCAGGUAGGUCGCGAUGCUAGGC [SSAB Alternative Aptamer #3 NP+V+V2] | 31.4 nM
16 | UGUAUGUGAUUUGAUACCAGACCAGCUGGUGGUGCAUGAGGAACACCCAUGCAGGUUUGGGUCCCUUGGCAGCAAAUCGCAUACU [SS Theo B #24 Ms19] | 149 nM
17 | AACAUACAAUAAUAGGUGGAUAUAAGGCGGCGAGGACCGGUACGGCCGCCACUCGCGUACAUGAGGAUCACCCAUGUCUGAAACU [Same State - Tryptophan A (Freestyle 3)] | 16.8 nM
18 | GAUAUGGAAACAUGUCAGAUCCUUACCGGUCGAGGACCGGUACGGCCGCCACUCGCAAAUAUUGUACAUGAGGAUCACCCAUGUA [Ex Tryptophan A 17] | 13.2 nM
19 | UUCAGCUAGUCGGCCGCCACUACCUGAGGAUCACCCUGGUAAUCCUAACACUGCUUCGGCAGUGGUAGGACCGGGACUAGCUGAG | 27.7 nM
20 | CUAUAAUGAAAACAUUAUAGAGUGGGUGAACGAGGACCGGUACGGCCGCCACUCGGACAUGAGGAUCACCCAUGUCCAUGUGAAA [AstrosExyTryA#24] | 11.2 nM
21 | UCUGUUUGCUUUGUUUGUUUCUUCUUUGAGCGAGGACCGGUACGGCCGCCACUCGGGUUACAUGAGGAUCACCCAUGUGGUUUCU [Interesting] | 72.3 nM
22 | UUAAUGGAGCUUUAAUUUACGAUUUCUGAUACCAGUGUUUCAUUUCACCCUUGGCAGCAGUGACAUGAGGAUCACCCAUGUAAUA [JR_Nu_SSTheophyA_Sub022] | 23.7 nM
23 | GGGUGUGAUCCGGAUACCAGCGAACAUGAGGAUCACCCAUGUGACCUGAGAUCGGCUCUACGCCCUUGGCAGCCGCGGUCGCAGG [Same State Theophylline B GF13] | 23 nM
24 | AUUGUCGUGUCGGCCGCCACUGUCAUGGUUUUCGUGGAAAACAUGAGGAUCACCCAUGUAAUUGACAGGACCGGGACAUGGCGGC [Ricegesoer] | 9.35 nM
25 | GAUAGUUGAAGGGAUACCAGCCUGGACAUGAGGAUCACCCAUGUAGCGUGUUUGAAACUGGGCCCUUGGCAGCCCAUAUUGUGUA [Same State - Theophylline B / A] | 16.3 nM
26 | ACAUGAGGAUCACCCAUGUCAUGAGGUUCACGAGGACCGGUACGGCCGCCACUCGACAUGAGGGUCACCCAUGUGAGGAACACCC [mamullun] | 117 nM
27 | UAAUGUGAGAGAAGGAGCGGAAGUCUCGUUACAACAUGAGGAUCACCCAUGUAACGUACAGUCCAGGUAGGUCGCUCUCGGGCGC [pqacmullin] | 16.9 nM
28 | GCGACACUCACGGCCGCCACUGAUUAGCCCAGUAUGGAGCCCACACAUGAGGAUCACCCAUGUCACAGGACCGGGUGGGUCUAUU [theeternabot_sameState_MS2_Trp_B_23] | 22.8 nM
29 | CAAAAUUACGGAAGGAGCGCGGGUAGGCGGGUUGGAUCACAUGAGGAUCACCCAUGUAAAUCGCAGGUAGGUCGCCGUAAACGCG [Eslagele] | 45.6 nM
30 | ACAUGAGGAUCACCCAUGUAUCAACGGGAAGGAGCGCCAAACAAGGCAGGUAGGUCGCCCACAUGAGGAUCACCCAUGUGUUGGU [Exclusion Arginine A GF 29] | 20.6 nM

Same assay, conditions: Eterna round: R107; input ligand: none

Row | Sequence | apparent KD of MS2 coat protein
31 | UAGUUGCUGACGGCCGCCACUAGAACAUGAGGAUCACCCAUGUAUUCUAGUGGACAUGGGUGGACUAGGACCGGGUCAGCAACAU [(Trp1)-(Ms2)-(T)'-(M)'-(Trp2)_Design9] | 20.6 nM
32 | AAUAAUAAGGCGGCCGCCACUACACAUGAGGAUCACCCAUGUCUCGCGGGCUUGCGUUGGGAAAGUAGGACCGGGCCAAUAAUAA [Exclusion - Tryptophan B (Freestyle 9)] | 21.5 nM
